In the supplement of paper PMC10065799, “High-throughput profiling of sequence recognition by tyrosine kinases and SH2 domains using bacterial peptide display” (eLife, 2023):

Key:
[1] = target: EPHB2 (UniProt P29323); assay: phosphorylation enrichment, bacterial display (enrichment ratio); higher = better substrate or ligand; peptides without Tyr show the background
[2] = system: Fer (mouse); assay: as above
[3] = target: EPHB1 (UniProt P54762); assay: as above
[4] = target: Fes (UniProt P07332); assay: as above
[5] = target: Fyn (UniProt P06241); assay: as above
[6] = target: Jak2 (UniProt O60674); assay: as above
[7] = system: AncSZ; assay: as above
[8] = target: MERTK (UniProt Q12866); assay: as above
[9] = target: FGFR3 (UniProt P22607); assay: as above
[10] = system: c-Abl (mouse); assay: as above
[11] = target: FGFR1 (UniProt P11362); assay: as above
[12] = target: Hck (UniProt P08631); assay: as above
[13] = system: c-Src; assay: as above
[14] = target: c-Src SH2; assay: SH2 binding enrichment of the phosphorylated peptide, bacterial display (enrichment ratio); higher = better substrate or ligand; peptides without Tyr show the background
[15] = target: Grb2 SH2 (UniProt P62993); assay: as above
[16] = target: SHP2-C SH2; assay: as above
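For SH2 binding enrichment of the phosphorylated peptide, bacterial display in this document: peptide library displayed on the E. coli surface as eCPX fusions, selected cells deep-sequenced, score is each peptide's frequency after selection divided by its frequency in the input.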
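For phosphorylation enrichment, bacterial display in this document: 11-residue human phosphosite peptides and single-mutation variants displayed on the E. coli surface, counted by deep sequencing, each peptide's frequency after selection divided by its frequency in the unselected input library; frequency after pTyr selection over input frequency; kinase dosed for 20-30% of maximal phosphorylation in three min.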

Chain of EPHB1 (P54762 whole entry, looked up): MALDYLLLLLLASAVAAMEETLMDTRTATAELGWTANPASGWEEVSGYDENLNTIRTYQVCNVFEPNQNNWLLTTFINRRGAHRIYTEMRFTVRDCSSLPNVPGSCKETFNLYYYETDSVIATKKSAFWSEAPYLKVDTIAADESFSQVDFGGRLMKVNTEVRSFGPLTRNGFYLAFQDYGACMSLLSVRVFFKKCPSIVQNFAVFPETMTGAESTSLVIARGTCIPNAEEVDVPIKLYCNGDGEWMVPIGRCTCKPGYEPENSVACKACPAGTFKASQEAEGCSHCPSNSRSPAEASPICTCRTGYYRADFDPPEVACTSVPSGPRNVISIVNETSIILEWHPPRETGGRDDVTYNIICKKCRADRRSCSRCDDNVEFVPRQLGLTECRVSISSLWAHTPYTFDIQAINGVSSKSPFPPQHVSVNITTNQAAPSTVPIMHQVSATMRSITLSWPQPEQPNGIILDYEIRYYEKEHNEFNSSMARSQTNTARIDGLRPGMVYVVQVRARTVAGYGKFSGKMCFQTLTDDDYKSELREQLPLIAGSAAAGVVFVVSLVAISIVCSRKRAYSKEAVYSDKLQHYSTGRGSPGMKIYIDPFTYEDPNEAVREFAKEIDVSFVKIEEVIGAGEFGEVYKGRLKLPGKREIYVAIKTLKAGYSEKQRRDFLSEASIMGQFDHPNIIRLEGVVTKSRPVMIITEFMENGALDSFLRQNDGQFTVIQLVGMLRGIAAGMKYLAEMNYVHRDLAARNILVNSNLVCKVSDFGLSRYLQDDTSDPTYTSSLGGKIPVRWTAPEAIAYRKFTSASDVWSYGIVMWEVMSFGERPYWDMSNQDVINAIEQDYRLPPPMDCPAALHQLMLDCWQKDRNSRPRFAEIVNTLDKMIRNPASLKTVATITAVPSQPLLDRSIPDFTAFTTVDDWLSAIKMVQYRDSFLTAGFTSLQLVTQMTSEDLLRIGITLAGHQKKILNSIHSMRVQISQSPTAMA
Chain of Jak2 (O60674 whole entry, looked up): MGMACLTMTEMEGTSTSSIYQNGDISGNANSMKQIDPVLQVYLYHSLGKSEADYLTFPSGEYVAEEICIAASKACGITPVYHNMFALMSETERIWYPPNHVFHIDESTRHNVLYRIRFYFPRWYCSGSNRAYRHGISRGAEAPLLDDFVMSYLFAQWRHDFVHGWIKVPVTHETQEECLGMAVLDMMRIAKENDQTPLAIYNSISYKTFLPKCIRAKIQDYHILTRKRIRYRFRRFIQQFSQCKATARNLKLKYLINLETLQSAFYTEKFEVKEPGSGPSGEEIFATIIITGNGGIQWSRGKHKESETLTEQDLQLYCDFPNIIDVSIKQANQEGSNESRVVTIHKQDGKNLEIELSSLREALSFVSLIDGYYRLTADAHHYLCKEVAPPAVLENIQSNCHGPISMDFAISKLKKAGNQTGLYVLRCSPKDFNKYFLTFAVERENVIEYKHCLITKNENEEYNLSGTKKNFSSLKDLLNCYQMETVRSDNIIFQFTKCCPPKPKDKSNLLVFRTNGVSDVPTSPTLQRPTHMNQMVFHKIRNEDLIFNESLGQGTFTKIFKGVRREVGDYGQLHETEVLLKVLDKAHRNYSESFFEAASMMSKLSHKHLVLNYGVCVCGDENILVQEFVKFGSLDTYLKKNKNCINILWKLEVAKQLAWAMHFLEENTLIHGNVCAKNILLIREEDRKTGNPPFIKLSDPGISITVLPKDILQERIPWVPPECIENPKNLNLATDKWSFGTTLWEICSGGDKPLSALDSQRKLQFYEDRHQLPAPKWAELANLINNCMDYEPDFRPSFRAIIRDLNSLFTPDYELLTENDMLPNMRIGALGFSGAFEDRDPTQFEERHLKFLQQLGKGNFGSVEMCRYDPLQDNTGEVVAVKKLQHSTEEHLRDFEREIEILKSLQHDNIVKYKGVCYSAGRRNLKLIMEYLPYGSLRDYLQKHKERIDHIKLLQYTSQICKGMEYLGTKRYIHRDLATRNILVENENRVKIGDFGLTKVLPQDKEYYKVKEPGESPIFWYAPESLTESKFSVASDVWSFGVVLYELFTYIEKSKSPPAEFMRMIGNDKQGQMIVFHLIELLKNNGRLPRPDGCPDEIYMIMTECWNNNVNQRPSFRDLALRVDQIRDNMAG
Chain of Hck (P08631 whole entry, looked up): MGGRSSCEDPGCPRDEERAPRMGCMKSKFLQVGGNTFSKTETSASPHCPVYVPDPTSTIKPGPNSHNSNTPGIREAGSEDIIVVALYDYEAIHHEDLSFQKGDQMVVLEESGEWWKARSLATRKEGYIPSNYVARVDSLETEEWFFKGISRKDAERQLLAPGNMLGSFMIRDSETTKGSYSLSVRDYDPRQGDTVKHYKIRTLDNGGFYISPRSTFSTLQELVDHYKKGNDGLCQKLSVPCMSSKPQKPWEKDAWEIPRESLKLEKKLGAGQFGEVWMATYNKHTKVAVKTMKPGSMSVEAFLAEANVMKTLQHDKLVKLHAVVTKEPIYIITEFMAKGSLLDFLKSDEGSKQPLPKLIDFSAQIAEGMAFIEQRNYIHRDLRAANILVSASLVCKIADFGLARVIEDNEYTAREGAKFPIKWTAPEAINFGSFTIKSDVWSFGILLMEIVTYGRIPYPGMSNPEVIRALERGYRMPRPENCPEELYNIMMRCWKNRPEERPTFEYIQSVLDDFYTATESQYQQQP
Chain of EPHB2 (P29323 whole entry, looked up): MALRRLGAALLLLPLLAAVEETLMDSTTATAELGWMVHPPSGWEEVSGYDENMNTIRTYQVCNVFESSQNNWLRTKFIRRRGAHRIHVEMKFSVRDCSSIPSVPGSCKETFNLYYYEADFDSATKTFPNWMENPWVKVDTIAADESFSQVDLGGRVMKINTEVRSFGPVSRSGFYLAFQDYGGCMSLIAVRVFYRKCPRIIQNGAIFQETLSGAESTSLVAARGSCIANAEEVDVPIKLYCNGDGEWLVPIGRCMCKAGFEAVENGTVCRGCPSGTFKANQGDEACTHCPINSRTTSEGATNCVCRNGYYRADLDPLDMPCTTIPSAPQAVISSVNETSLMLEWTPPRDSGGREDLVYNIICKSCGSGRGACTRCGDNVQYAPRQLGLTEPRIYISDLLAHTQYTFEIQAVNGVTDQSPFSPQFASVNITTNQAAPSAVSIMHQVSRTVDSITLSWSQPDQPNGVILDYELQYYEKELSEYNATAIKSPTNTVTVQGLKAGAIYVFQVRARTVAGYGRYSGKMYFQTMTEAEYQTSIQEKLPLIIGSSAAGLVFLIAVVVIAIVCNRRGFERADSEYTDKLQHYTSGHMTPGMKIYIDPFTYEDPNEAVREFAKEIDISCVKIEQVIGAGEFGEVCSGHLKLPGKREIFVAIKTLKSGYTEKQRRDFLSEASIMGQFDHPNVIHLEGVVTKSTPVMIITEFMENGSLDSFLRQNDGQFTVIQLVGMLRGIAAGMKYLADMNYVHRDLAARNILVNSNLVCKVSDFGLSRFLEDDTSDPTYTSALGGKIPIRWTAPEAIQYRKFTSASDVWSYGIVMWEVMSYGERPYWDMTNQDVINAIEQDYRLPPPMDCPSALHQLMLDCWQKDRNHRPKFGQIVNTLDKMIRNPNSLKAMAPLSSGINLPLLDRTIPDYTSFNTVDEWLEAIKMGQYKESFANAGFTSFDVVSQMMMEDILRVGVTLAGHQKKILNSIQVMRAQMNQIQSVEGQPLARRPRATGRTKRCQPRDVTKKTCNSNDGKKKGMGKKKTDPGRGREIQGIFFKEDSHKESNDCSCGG
Chain of MERTK (Q12866 whole entry, looked up): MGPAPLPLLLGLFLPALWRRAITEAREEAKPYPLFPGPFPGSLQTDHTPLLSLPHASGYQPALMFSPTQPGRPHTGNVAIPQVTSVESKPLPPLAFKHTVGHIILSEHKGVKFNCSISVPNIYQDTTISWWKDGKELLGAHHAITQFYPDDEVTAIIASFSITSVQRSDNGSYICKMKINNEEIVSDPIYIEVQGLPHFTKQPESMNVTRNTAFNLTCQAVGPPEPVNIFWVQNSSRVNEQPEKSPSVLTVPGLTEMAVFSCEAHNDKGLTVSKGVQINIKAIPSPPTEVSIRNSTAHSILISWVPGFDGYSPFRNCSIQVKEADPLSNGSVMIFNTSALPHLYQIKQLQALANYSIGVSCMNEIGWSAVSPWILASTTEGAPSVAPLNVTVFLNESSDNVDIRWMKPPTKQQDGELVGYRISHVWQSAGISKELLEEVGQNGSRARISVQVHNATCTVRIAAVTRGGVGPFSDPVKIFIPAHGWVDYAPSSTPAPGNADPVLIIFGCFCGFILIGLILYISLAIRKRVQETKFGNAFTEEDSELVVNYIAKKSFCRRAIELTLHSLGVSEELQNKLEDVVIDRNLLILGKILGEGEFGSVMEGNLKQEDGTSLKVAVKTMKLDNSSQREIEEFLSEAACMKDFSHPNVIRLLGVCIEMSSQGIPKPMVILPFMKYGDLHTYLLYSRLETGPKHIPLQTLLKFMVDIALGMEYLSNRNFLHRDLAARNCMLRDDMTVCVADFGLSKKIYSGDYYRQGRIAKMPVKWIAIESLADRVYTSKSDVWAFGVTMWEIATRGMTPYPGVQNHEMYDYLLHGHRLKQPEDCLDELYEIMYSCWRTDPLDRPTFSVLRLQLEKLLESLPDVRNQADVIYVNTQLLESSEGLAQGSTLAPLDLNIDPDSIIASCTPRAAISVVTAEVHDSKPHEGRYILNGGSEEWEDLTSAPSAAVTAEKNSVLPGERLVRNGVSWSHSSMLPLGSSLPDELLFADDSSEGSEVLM

| SH2 binding enrichment [14] | SH2 binding enrichment [15] | SH2 binding enrichment [16] | Sequence | phosphorylation enrichment [1] | phosphorylation enrichment [2] | phosphorylation enrichment [3] | phosphorylation enrichment [4] | phosphorylation enrichment [5] | phosphorylation enrichment [6] | phosphorylation enrichment [7] | phosphorylation enrichment [8] | phosphorylation enrichment [9] | phosphorylation enrichment [10] | phosphorylation enrichment [11] | phosphorylation enrichment [12] | phosphorylation enrichment [13] |
| --- | --- | --- | --- | --- | --- | --- | --- | --- | --- | --- | --- | --- | --- | --- | --- | --- |
| 0.521 | 0.828 | 0.607 | AASHRYDLGGL [QPRT_Y162] | 0.375 | 0.336 | 0.356 | 0.56 | 0.352 | 0.521 | 0.491 | 0.327 | 0.4 | 0.432 | 0.416 | 0.35 | 0.391 |
| 0.559 | 0.926 | 0.496 | AAVDEYLEFRR [FAM221A_Y17_YF] | 0.517 | 0.421 | 0.395 | 0.963 | 0.949 | 0.756 | 1.14 | 0.409 | 0.531 | 0.722 | 0.601 | 1.47 | 1.28 |
| 0.534 | 0.788 | 0.636 | AAVDTVCRHNY [HLA-DRB1_Y107_Y107V] | 0.429 | 0.417 | 0.463 | 0.842 | 0.494 | 0.739 | 0.645 | 0.511 | 0.673 | 0.795 | 0.612 | 0.64 | 0.473 |
| 0.562 | 0.898 | 0.675 | ACCLLYCGDVV [TUBA4A_Y319_R320C] | 7.84 | 3.7 | 9.94 | 1.3 | 1.1 | 1.09 | 1.54 | 4.54 | 1.23 | 1.29 | 1.13 | 1.71 | 4.33 |
| 0.403 | 0.798 | 0.733 | ACEVLYNIVFM [NCF2_Y125_A128V] | 1.16 | 8.66 | 1.17 | 1.93 | 1.55 | 1.59 | 2.4 | 3.19 | 2.03 | 1.84 | 1.8 | 2.95 | 2.18 |
| 0.528 | 0.92 | 1.54 | ADKSVYLMGLN [MYH7_Y386_A385V] | 0.409 | 0.413 | 0.407 | 0.769 | 0.583 | 0.51 | 0.666 | 0.379 | 0.523 | 0.338 | 0.444 | 0.481 | 0.678 |
| 0.454 | 0.826 | 0.696 | AEVDTYCRHNF [HLA-DRB1_Y107_A103E_YF] | 0.556 | 0.813 | 0.594 | 0.935 | 0.567 | 0.719 | 0.988 | 0.473 | 0.61 | 0.618 | 0.532 | 0.6 | 0.509 |
| 0.524 | 0.8 | 0.586 | AFPVSYSSSSA [RET_Y687_G691S] | 0.425 | 0.425 | 0.511 | 0.663 | 0.461 | 0.527 | 0.598 | 0.536 | 0.685 | 0.455 | 0.38 | 0.463 | 0.415 |
| 0.57 | 0.767 | 0.64 | AGIKAYQSCLQ [ADGRA2_Y377_T375K] | 0.55 | 0.424 | 0.583 | 0.983 | 0.383 | 0.841 | 0.786 | 0.558 | 0.572 | 0.85 | 0.453 | 0.537 | 0.55 |
| 0.609 | 0.825 | 0.698 | AGQEDYDRLRP [CDC42_Y64] | 0.654 | 0.508 | 0.598 | 1.07 | 0.546 | 0.839 | 1.13 | 0.471 | 0.69 | 0.689 | 0.576 | 0.785 | 0.452 |
| 0.393 | 0.781 | 0.66 | AHADEYGAEAL [HBA1_Y25_G23D] | 0.403 | 0.412 | 0.538 | 1.1 | 0.458 | 0.96 | 0.97 | 0.536 | 0.564 | 0.791 | 0.398 | 0.511 | 0.46 |
| 0.44 | 0.937 | 0.968 | AIDDKYSRREE [SART1_Y685] | 0.511 | 0.434 | 0.431 | 0.939 | 0.51 | 0.794 | 0.806 | 0.439 | 0.578 | 0.471 | 0.488 | 0.465 | 0.426 |
| 0.805 | 1.14 | 0.951 | AIIGIYNLRDD [CDH23_Y2949_I2950N] | 0.437 | 0.45 | 0.481 | 1 | 6.82 | 0.795 | 0.821 | 0.573 | 0.599 | 0.691 | 0.478 | 5.28 | 5.84 |
| 0.573 | 0.895 | 0.623 | AKAEIYEMRPL [COX10_Y97] | 6.54 | 6.76 | 11 | 0.912 | 11.4 | 0.77 | 1.08 | 8.29 | 0.672 | 0.801 | 0.552 | 12.1 | 9.82 |
| 0.607 | 0.783 | 0.767 | ALTDNYMYVVI [HAGH_Y61_L64V] | 13.1 | 7.79 | 12.9 | 1.42 | 1.04 | 2.65 | 1.92 | 4.21 | 9.14 | 0.952 | 11.1 | 1.52 | 1.12 |
| 0.433 | 0.655 | 0.576 | ALTRSYIREKV [CYP2C8_Y243] | 0.316 | 0.43 | 0.388 | 0.596 | 0.422 | 0.445 | 0.524 | 0.369 | 0.367 | 0.417 | 0.423 | 0.4 | 0.419 |
